We go through 2 molecules from publication doi:10.1101/2024.07.16.603655 (bioRxiv, 2024).

By stoichiometry N is commonly meant a count of units in the complex or per binding partner.

The target in data set [1] is dsRBD3-6xHis (dsRNA binding domain 3 of zebrafish Prkra) (zebrafish). As to the kind of experiment: native gel or EMSA.
The data set “native gel or EMSA” deals with the molecule itself. As to the kind of experiment: native gel or EMSA.

The molecule “dsRBD3-6xHis (dsRNA binding domain 3 of zebrafish Prkra) (domain or fragment)” showed a stoichiometry N in data set [1] of 2.

B1: Prkra-6xHis (recombinant wild-type zebrafish Prkra) (natural protein, UniProt B0V3F8 1-282, looked up)
chain: MAPQRSQDKTPIQLLHEYGIKISSAPKYELIHADGDAHQPSFMFSVTIGEVTCKGRGSTKKAAKHEAAEAALKLLKRDSQIIDQRDNNGLSPEAGEASNPVGILQELAMQRVWCLPEYVVFMETGPGHMKEFTIACRLEGLEETGSGSSKKLARRAAAENMIAKLQSLSGSSEITWSPPSRVYVESLRNSTGEKVSLLKRTPLSLPNTDYIQMLLEISLELGFQVTYIDIDELTVNGQYQCLVELSTRPVTVCHGSGVTSSNAHNAAAHNALQYIKMVASKH
In the case of B1, in the data set “native gel or EMSA”, the “stoichiometry N” value was ~2.
